According to paper PMC12753717:

How the values were obtained:
[1] = target: soluble envelope protein ectodomain of yellow fever virus strain 17D with C-terminal 3C site and TwinStrep tag (yellow fever virus strain 17D); assay: SEC-MALS
[2] = target: soluble envelope protein ectodomain of yellow fever virus strain Asibi with C-terminal 3C site and TwinStrep tag (yellow fever virus strain Asibi); assay: SEC-MALS

Substance	stoichiometry N [1]	stoichiometry N [2]
precursor peptide pr of yellow fever virus strain 17D	1	–
precursor peptide pr of yellow fever virus strain Asibi, canonical furin cleavage product (pr1, 9.95 kDa)	–	1
